# From the supplement of paper PMC10567573
# B1: CLPTM1 (parent)
# chain: LGCYAVYSLLYLEHKGWYSWVLSM
# B2: RAB40A (parent)
# chain: NWLGRPSKVLSLQDLCCRTIVSCT
# Variants of: B1
# Assay: protein stability index of a GFP-peptide fusion (GPS, HEK-293T) (PSI 1-6); higher = more stable
# Conditions: c terminus: a fixed tail appended
# 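Also: lentivirally expressed fusions sorted by FACS into six bins by GFP to DsRed ratio, PSI derived from sequencing read proportions per bin multiplied by bin number.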
row,Variant,protein stability index
1,Y11I,3
2,Y11M,2.05
3,Y11G,4.08
4,Y11F,3.26
5,Y11D,2.36
6,Y11H,2.09
7,Y11P,2.2
8,Y11Q,3.22
9,Y11S,1.87
10,Y11E,3.13
11,Y11N,2
12,Y11W,2.68
13,Y11K,2.63
14,Y11T,2.69
15,G16M,2.67
16,G16H,3.98
17,G16A,4.05
18,G16R,1.42
19,G16N,2.7
20,G16E,2.88
21,G16P,2.75
22,G16D,2.47
23,G16F,2
24,G16V,2.84
25,G16T,2.75

row,Variant,protein stability index
1,G2R,3.1
2,G2V,2.32
3,G2Q,3.29
4,G2Y,3.37
5,G2T,3.4
6,G2I,2.87
7,G2S,1.47
8,G2N,3.83
9,G2W,2.07
10,G2P,2.76
11,G2D,3.19
12,G2E,3.26
13,G2F,2.72
14,G2M,3.58
15,G2L,3.57
16,S19W,2.66
17,S19I,3.66
18,S19R,1.76
19,S19K,3.27
20,S19C,3.08
21,S19P,2.93
22,S19F,2.47
23,S19E,2.27
24,S19V,1.92
25,S19G,2.71

row,Variant,protein stability index
1,S19T,3.99
2,S19A,4.22
3,S19Q,3.63
4,S19N,3.88
5,Y4M,3.4
6,Y4T,3.11
7,Y4W,2.19
8,Y4V,3.14
9,Y4R,2.91
10,Y4K,3.58
11,Y4G,3.18
12,Y4A,4.36
13,Y4D,1.9
14,Y4I,1.89
15,Y4C,3.33
16,Y4Q,2.4
17,Y4H,2.69
18,Y4P,3.14
19,Y4S,3.75
20,Y4F,2.33
21,Y4N,3.2
22,Y4L,3.04
23,E13I,4.56
24,E13G,1.95
25,E13Y,2.12

row,Variant,protein stability index
1,E13A,1.11
2,E13P,3.78
3,E13F,3.1
4,E13D,2.51
5,E13T,3.83
6,E13M,2.58
7,E13L,3.4
8,E13C,2.64
9,E13H,3.66
10,S8H,2.55
11,S8V,1.96
12,S8E,1.27
13,S8N,4.1
14,S8T,2.09
15,S8G,4.38
16,S8P,3.57
17,S8A,2.25
18,S8I,3.15
19,S8K,3.64
20,S8W,1.43
21,S8C,2.96
22,Y7W,3.23
23,Y7I,3.09
24,Y7Q,2.39
25,Y7M,3.54

row,Variant,protein stability index
1,Y7K,2.19
2,Y7F,3.72
3,Y7H,2.13
4,Y7P,3.71
5,Y7N,5.04
6,Y7C,3.42
7,Y7D,3.78
8,Y7R,2.82
9,Y7E,2.54
10,Y7V,3.4
11,A5I,3.28
12,A5F,3.69
13,A5C,3.34
14,A5M,2
15,A5W,4.06
16,A5H,2.82
17,A5L,4.56
18,A5D,2.12
19,A5E,3.12
20,A5K,2.91
21,A5R,2.43
22,A5S,3.5
23,A5T,2.57
24,A5N,4.03
25,H14W,3.16

row,Variant,protein stability index
1,H14F,3.12
2,H14A,3.68
3,H14R,2.22
4,H14G,2.4
5,H14V,2.52
6,H14Y,3.4
7,H14L,2.4
8,H14M,2.53
9,H14Q,3.42
10,H14C,2.45
11,H14S,2.43
12,H14P,2.6
13,H14T,3.37
14,H14D,2.41
15,H14I,2.44
16,H14N,2.58
17,Y18V,2.95
18,Y18N,3.45
19,Y18C,1.27
20,Y18F,2.61
21,Y18I,3.27
22,Y18H,2.44
23,Y18P,3.5
24,Y18Q,2.56
25,Y18D,3.53

row,Variant,protein stability index
1,Y18R,3.76
2,Y18L,2.48
3,Y18K,2.08
4,Y18W,3.03
5,Y18G,2.21
6,Y18M,2.61
7,K15F,2.41
8,K15A,1.32
9,K15I,2.89
10,K15W,2.46
11,K15C,2.9
12,K15S,2.73
13,K15N,3.11
14,K15G,1.81
15,K15T,4.26
16,K15H,3.75
17,K15L,3.23
18,K15Y,2.57
19,K15V,2.65
20,K15P,3.92
21,K15Q,1.25
22,K15M,3.9
23,L1N,3.26
24,L1Q,4.62
25,L1M,3.26

row,Variant,protein stability index
1,L1E,3.05
2,L1S,3.4
3,L1V,2.65
4,L1T,3.54
5,L1R,3.05
6,L1G,2.73
7,L1F,2.55
8,L1H,2.19
9,L1C,2.92
10,L1D,2.85
11,L1Y,3.77
12,L1I,3.58
13,L1W,2.96
14,L10Q,3.9
15,L10I,3.43
16,L10F,3.57
17,L10T,2.74
18,L10C,2.87
19,L10K,3.39
20,L10S,1.76
21,L10H,2.84
22,L10W,2.32
23,L10G,3.1
24,L10D,3.21
25,L10A,2.39

row,Variant,protein stability index
1,L10R,1.94
2,L10N,3.35
3,L10P,2.45
4,L10Y,2.5
5,L10M,2.82
6,L12V,2.89
7,L12Q,3.59
8,L12W,2.4
9,L12Y,2.43
10,L12F,3.31
11,L12T,2.14
12,L12S,2.02
13,L12P,3.25
14,L12E,3.57
15,L12N,4.59
16,L12H,2.99
17,L12D,2.74
18,L12M,4.09
19,L12K,3.11
20,L12G,3.12
21,L12R,4.16
22,L12C,2.68
23,L12I,3.36
24,C3R,1.63
25,C3H,2.58

row,Variant,protein stability index
1,C3P,2.26
2,C3W,2.24
3,C3F,2.37
4,C3I,2.62
5,C3G,2.35
6,C3K,2.74
7,C3M,3.15
8,C3S,3.55
9,C3T,2.52
10,C3Y,3.21
11,C3N,3.61
12,C3L,3.21
13,C3D,2.59
14,C3E,3.26
15,C3V,3.36
16,L9R,2.18
17,L9Y,2.36
18,L9K,2.65
19,L9Q,2.67
20,L9C,2.03
21,L9D,3.48
22,L9E,2.13
23,L9V,1.94
24,L9I,2.15
25,L9H,1.71

row,Variant,protein stability index
1,L9S,2.77
2,L9F,4.07
3,L9G,1.77
4,L9M,2.92
5,L9T,1.75
6,L9N,3.39
7,L9W,2.7
8,L9P,4.54
9,V6G,2.72
10,V6R,2.3
11,V6L,3.28
12,V6M,2.22
13,V6H,2.31
14,V6S,2.76
15,V6W,1.84
16,V6C,4.28
17,V6A,3.13
18,V6T,2.61
19,V6K,2.83
20,V6E,2.84
21,V6I,3.34
22,V6N,2.73
23,V6P,2.49
24,V6D,3.58
25,V6F,3.45

row,Variant,protein stability index
1,W17E,2.81
2,W17K,3.85
3,W17L,2.96
4,W17F,1.55
5,W17D,2.76
6,W17R,2.16
7,W17G,2.14
8,W17A,3.3
9,W17C,2.36
10,W17Y,2.38
11,W17I,2.71
12,W17P,2.44
13,W17T,3.28
14,W17N,4.13

# Variants of: B2
# Assay: as above
# Conditions: c terminus: a fixed tail appended
row,Variant,protein stability index
1,C23N,2.93
2,C23M,2.33
3,C23R,2.92
4,C23P,2.68
5,C23W,2.67
6,C23I,2.33
7,C23L,2.37
8,C23K,2.92
9,C23Q,3.46
10,C23H,2.69
11,C23E,2.8
12,C23Y,2.35
13,C23V,2.21
14,C23S,2.95
15,C23T,2.66
16,C23G,3.28
17,C23D,3.12
18,C23A,2.74
19,C23F,2.33
20,T24R,2.89
21,T24A,2.5
22,T24W,2.2
23,T24L,2.31

row,Variant,protein stability index
1,T24C,2.07
2,T24Y,2.13
3,T24M,2.27
4,T24D,2.85
5,T24S,2.62
6,T24N,2.87
7,T24H,2.64
8,T24E,2.58
9,T24V,2.28
10,T24F,2.63
11,T24I,1.58
12,T24P,3.02
13,T24G,2.6
14,T24Q,3.19
15,T24K,3.2
16,S22Y,1.95
17,S22W,2.04
18,S22R,2.77
19,S22Q,2.59
20,S22T,2.4
21,S22P,2
22,S22V,1.77
